Assay results reported in a protein production outcome set (Wang et al. 2014).

Test: label from the status in PepcDB records

Row | Sequence | protein production
1 | MHAELYRTRKRWYESAWPGAGFWRGANDTLPVTNYITYPANFDQPDGQSLTPLTMAAMMGNVKFVKTLLSHYDVDLDRECNVIYDGMVVYGATALWVAAGMGHLQIVKMLVQAGAAINHNTKAQSSPLRAACYEGRLDIVEFLIDNGADVNATNLFNNNTLMIAAYKGHHLVVKTLLQNGSRANDQALCGATALHYAAESGHLDVVVALLDHGATLKKNELGITPALQAAERLHEDVLEAFIERPELMSLEEQITALELLGATYANDKIKYDVNKAYGYLLRAMQLRYSNPRGVIRKRVQPTVPAYDNWLETENLPELYAIKLNHHSIHMESLAIRERILGRNNPELPQAIIYRGAVMADQGRFYQCQVLWNYAIDLRMRNNVSVDRDLLRFAQLFAQILRVENHNLTLDHVLPVLAKCQQEIENNKFKIKEAKPNACPSLWQDQNNQNCITALYLIKIVTHLARRKKDQNIDEEHIQQLFLVVRKFIQNDTRLQDGQTLLHIAVNGVMPVDEFYTNEMCRFPCYATALVLVHCGASVVAVDSDRNTPLHILVTKVNTTQDRQAEMARILELFVEAGAHLDAVNAAGQTAATACKLPILANRLHAHQNAHTSLKCLAARSIATNRLNFKGLIPTQLEAFIQMHSVRKVLP | failed
2 | MNKTMAKSLSVIIPACNEVDTISDVIQSVRPLNPVEIIVVANGCNDGTEDVADRLGCKVIKHTELLGNDVGRAVGAKHAIGDVLLFIDGDFAIPTSKLKLFLNPILYDQADVVLNNLDALFLKRQKTTSITVWRQILNAMLEREELKMNSLLDVPHALTKEVVQSIGYECFVNPIVAHLRLVQSKWRISRHCAIDVITPNKFRPFQHAAYGTNLSQSEKRMIGDHIEAVAERILSSDERGGYYDGNRKRDSVYHTLSFEEFYQGWGVTSDFYKGKQLSVVIPVQDEEKTIGNVIEELRKIEPFEIIVVVNGSSDKTKKIAKDKGATTIVYKEALGNDVGRSLGTYFAKGEIVLFIDGDFVIPASELYPFAKAIADGTDVALNDLNHYLDLRVPLHLVTAFKYALNLACDRKDLGVGSLIAVPNAFSRKCLKEIGYRSLLAPCVAQVKAILSGFEVACVSRVEVDKMNRIRPSEHFAKIGHPPAVLRIIGDHIEGLDQIIALTDNRGGFYDGNRKRDVLLEHHHHHH | failed
3 | MDRRHEIYEWFRINRFKVDMTATCLLILLFGPVYLVADRPWLFLLSCSLLLPLAWRRTRPAVAAGVVILVCLVQWAVAAEPVAGQIAVPLVIYATAAYGPAWASRTVLLAGLLGGVMLTTRLFSTTAESGILGLTIGALYTVLIWMLVLVSWTLGDLTRVRRLQLQALEDRTRRLEVEQMQERKLAAADERSHIAREMHDIVAHSLSVIITQADGARYAAAAKPELATEALATIAATGRDSLGEMRRLLGVLRSDDDSPTRPQPRLSDLDELLLGFRAATLQVTFEQSGAPRRALPAGAELTAYRIIQEALTNVMKHAGPRATAAVTLAWQARGLQVDVVDDGRGAAADPPTAGGGNGLRGMGERVSLYDGSLTAGPEQGGGFRVSAFIPYSEA | failed
4 | MAGAAQSHAVPGFRRNMVTICAMTATIMQALDTTIANVALPYMQGSLSASQDQINWVLTSYIVAAAIMTAPVGWIANRFGRKRIFIICSAGFTIASVMCGLAQDITQMVVFRLLQGVFGAALVPLSQAVMLDSYALHERAKAMSIWGMGVMMGPIMGPSLGAWLTETYSWHWVFFVNLPFGAITVLGLAMFMDETDKNQELKFDWFGFAALAVGIGAMQLALDRGEQLDWFNSPEIIIESIVSVVGFYYFFAHSFTTERPFIQFAIFKDRNFVGGVVFMTVMGLVLFSTMALSSPFLQNVEGYPIMTAGLLLASRGCGTFVAMMIVGRIMRYIEARTLIATGLSLTCASLYVMTGWTDQTSVSSVVVTSIIQGFGFGLVFVPLSTVAFMTLPGQLRTDGTAMLTLVRNVASSVGISVVIAKLSSGTTTAHAILTEHINPFNNALQMPNVTGMIDLSTTTGKAMMDAIVTMQAQIIAFSHDYAMVMFLTAAAVPMAIIIGSTKAALRKQSEAPADHAAVME | failed
5 | MHCNDGGPATLGLFSDSDLQQPARVEVLGPQSRVLRGFALPWVEALLPQLDAVLAAAPFRQMQTPGGFTMSVGLSSCGQLGWTTDRSGYRYSPIDPQSQRPWPALPKVFQELAEAAAEAAGFPGFAPDSCLINCYRPGAKMSLHQDKNERDYSAPIVSLSLGLPAIFLFGGRQRSDKSQRVALLHGDVVVWGGVDRLRYHGVLALKDGHHPLLGQQRINLTLRRAGLEHHHHHH | failed
6 | MVYWEYKINQTRRVMKNLKFQSVFDIIGPVMVGPSSSHTAGAVRIGKIVSAIFGDAPTEVEFQLFNSFAKTYRGHGTDVALVAGILGMETDDPDIPHALDIAHEKGIKVYWKINKDSKAPHPNTTRITLKNATKTISATGISIGGGNIQVTELNGF | not failed
7 | MKLINKSIPSIRLSEFISEIEDCLAATFYGDTFWITTEISDVNKKPDKRWCYLKLIEKEGKNVTAEIGAVFWTPGYAYIEKFEKETKQLFKDGLEITCRVKVTFHKRWGLKLEIVEIDYAYTLGKLEAERQETLDRLVKENPDYVRLVGEQYYTFNKSLPLPAVVQRIALITAPESDGQRDFRQELGNNPYGYAFHVDEFVTQIQGDKAHEFIIGKLLLIEAQKEKYDVVAIVRGGGSQLDLKAFDAYDLAQRIASFPVPILTGIGHDRNTSIADLMARQEKTPTKVANVIIQRNFQFEQTVLILKERMVHTVDGLFTNAKNNLKEIKRFVKASNPLTILKKGFAIVKQDNVIITDPSAIDVGTEIQIQFDKETVQSTVTKKKKNGK | failed
8 | MSDSKFLRGTLIVTLGTFLVKFLGMIYVFPFHALVGTEGGTLYTYGYIPYTIFLSIATAGVPLAVSKFVSKYNALGDYKTSRRMFRSGMVMMIVTGVLSFLVLYMTAPLFAEAMLGKQSVHSNIGEVTTIIRLVSFALIVVPAASLIRGYFQGHQSMGPTTVSQIIEQIIRIVFLLAGSFIVIKVLGGTVATAVGVATFAAFVSAVGALGVLIWYWLKRKKHLDQYLIEQTALESTVSTVQLFKELFAYAIPYVVIGLTIPLYQQIDTLTFNSIMQAIGQGDIAERALGIFTMWTHKLIMIPVSLATAFSLTLVPAITKSFTEKQYRYLKLQITQTFQANMFLTLPAVVGISSLAYPIYTAFYDSDPLGGQVLMWYAPVALLFALFTVTAAILQGINQQKHAIIALIMGVILKFVCNVIFIRYFGTVGAILATAVGFLVSVWYTNQQIKKYAHYSFGVVYKRTFQIAVLTLVMVVTVKLSQWILSFMISPDGRMGALITVAICAGIGGLVYGLLAIRTGVLERVFGGEALEKIQRKLGNRFKIKLKSKGA | failed
9 | MYDYSILPNRIILCVDLRSFYASVSCIKMGLDPMHTKLAVVGDVNRNGSIVLAATPPLKALGVKKMARLYEIPRRKDILVVNPIMSTYIKCSNYITKLALQYVPIEDFHQYSIDEFFMDITDSIHLFAQDPYEFAMKFKREIYDHTRIECTIGIAPNPLMSKVALDIEAKKNKDGIAFWQYEDIPTKLWSIRPLNKFWGISYKTEEKLNRKGIYSIGDLANYPLKYLKQSFGKIGEELHLHSHGIDFSRISEKYVPATTSIGKSQILMRDYTIEEFPIILLEHIEEVCYRLRRQTKLAQTIHFSVGYSKSYTGGIRKTHTLNRPTNLTMDIYHICTYFLHQQYTGEPIRSINISLTNLIQEGEEQISLFDNVTKREQEMKLTKVMDEIRTKFGKNSILRGISYTHSATARHRNTLIGLEHHHHHH | failed
10 | EELIEIREARMDDLDTIAKFNYNLAKETEGKELDMDVLTKGVKALLLDERKGKYHVYTVFDKVVAQIMYTYEWSDWRNGNFLWIQSVYVDKEYRRKGIFNYLFNYIKNICDKDENIVGMRLYVEKENINAKATYESLNMYECDYNMYEYEVIHS | not failed
11 | MMKEKLESKKDEIRCCYKITDTDVAVLLKMVEIEKPITSEELADIFKLSKTTVENSLKKLIELGLVVRTKTEGKKIGRPKYYYSISSNILEKIRNDLLNCAKRMELAAT | not failed
12 | MVFCGDDVATGVRDAITYCYRCKGRKVTLSDHEADDDNKPIGDFDYDHEVVVFEIRSRAMEKLRKKRRTGMEGLTYKFVKEYDIENEFCSVRSSFSECCMSDISIEGYMTAKTEFSRSSSLKGLELENQWKMHYVNEIKKGSVIQEFCHCQGWPFGLGRKAALLPPLPKSPAESWSWRKPTRVTPVPFV | failed
13 | MSKVFVNISLSLDGFMAPEGMDMAHFSDPTYKNWGAKWGALMAWALSQQYLREKLKLGTGGETGPVNDMVRHTFERTGAHIMGKRMFEGGERGWPEEAPFHTPVYVLTHERRNPWVRPGGTTFYFVNDGPEQALALAREAAGERDIRISGGANVIQQYLNLGLVDELEIALIPVIFGGGRRLFENLHEPLPQFRIDRVLASPTATHLRYVRL | not failed
14 | MTAHPPRPELQIDIVSDVVCPWCIVGFRQLDQALAATGVLARLRWHPFELNPQMGPEGQNLREHIMEKYGSTPEQSAEARARLTAIGAELGFTFNFTDDSRIVNTFAAHQLLDWAEGQGRQHPLKQALFAAYFTDGRDVSDLSVLLDAVEAAGLDREAAQTALTSGAHQAPVREKQKFWAQHGISGVPSMVFGGKYLLTGAQGADTYAQVIQRCLAEA | not failed
15 | MSFIVCMSVLGVLLMLLALTSSYLRWMPVTTSAVCLAFGFGIGPLGLDIINLDFKQSREWLECLTEVAVLFSLFGTGIKLRLPLNCKAWHSAYWLAGPVMLATIAGVSVAAHYIFAIDWGVALLLGAMLSPTDPVLAGMVQVNSAQDQDRLRFGLSGEAGLNDGTAFPFVIFAMLYLSSGGVTGDWAQHWLLKDLIWAVPAGLLIGFGMGRGVGHLMIFLRIKNADSTTSPNDFLALALIALAYVVAEGFGAFGFLSVFAAGFGLRQAEMRVTRSELPSEHVAQPVLGHMTAALDQGTVAKADDLSDSQLAAGVMMGDMLAFGSLVERAMEVLLITLLGAALASYWDWRAIGLGLALFCVIRPASVWLLVSQKLLNARQKALVGWFGIRGIGSLYYLCFALSHGLADDVGNVVIGMTLSVVALSILLHGISIQPLLERYERSTAANPDK | failed
16 | MNMIEPAPVRKSVTVRTSPQQAFDVFVSGMGTWWIKGHSLTQSGQKTVVVEAVAGGRWYEIGNAGEECEWGRVIACDRPNRVLFDWQLNADFDYDPGLHTEVEVLFEANGEGGTTVILEHRHLEKYGVKAKEMRGIFDSENGWGGLLASYMEKAAA | failed
17 | MTSRIQMHRTSPPPAYGTSAPPSGFTLGASTTSTLQRWALPLLLVAFGLFYLLPLTSHGLWIPDETRYAQISQEMLLSGDWVAPHFMGIRYFEKPIAGYWLIAIGQAVFGDNLFGVRIASALSTGLSVLLAYLITRRMWNDPRKSFAAALLYMSFGLIAGQAGYSNLDPQFTLWVNLSLVALWFALDGRSTRERLLAWAGLGVACGMGFMTKGFLAWLLPVLIALPYMIWQRRLGELVRYGLVAVLVAIGISLPWVLSIHAHEPDFWRFFFWHEHIRRFAADNAQHTRPWWFYLPLLVASSLPWAALLPGTFMQAWKDKRQAPTGFLLLWFLLPLAFFSLSRGKLPTYIMPCLLPLAVLMGSALIDRINAIQGRSIRINSLLNLLIGVAAMVALLYIQLTRPVYGHNEMLGLSLVFIMLMGWIIANLLPAARPLQYWPAPALGIWLLVALLPAGMPGFIVHNQMPDQFIKEHIEELRQTKTLLSNDLGAASALAWRLQRPEVTLYNTEGELKYGLAYADSAQRKVSMAEVGQWVSEARKQGSVGVVMRVKDVVESEEVALLPPGGKRYEEGNMLVLILPQSQP | failed
